This passage reports kcat/Km results from patent US8357518B2, “Thermostable enzymes for the hydrolysis of mannan-containing polysaccharides” (The Board of Trustees of the University of Illinois, priority 2010, dated 2013).

Test in all cases: Catalytic efficiency with oligosaccharides, HPAEC (Man5A-TM1)
Format in all cases: biochemical, Caldanaerobius polysaccharolyticus
Common to all, as to conditions: other: Man5A-TM1 0.3 μM, oligosaccharide 30 μM, citrate buffer 50 mM, pH 5.5, 5 min, triplicate

Substrate in data set [1]: OC[C@H]1O[C@@H](O[C@H]2[C@H](O)[C@@H](O)[C@H](O[C@H]3[C@H](O)[C@@H](O)[C@H](O[C@H]4[C@H](O)[C@@H](O)[C@H](O[C@H]5[C@H](O)[C@@H](O)C(O)O[C@@H]5CO)O[C@@H]4CO)O[C@@H]3CO)O[C@@H]2CO)[C@H](O)[C@@H](O)[C@@H]1O
As for the experimental part: (§1) Cloning, expression, and purification of Man5A-TM1, Man5A-TM2 and Man5B. C. polysaccharolyticus was cultured in TYG medium and DNA was isolated from mid-log cultures and purified using the Qiagen DNeasy Blood and Tissue kit with an integrated RNase treatment step. The genome of C. polysaccharolyticus was partially sequenced by the W. M. Keck Biotechnology Center at the University of Illinois at Urbana-Champaign. A Newbler assembly was generated which is comprised of ½ plate of FLX PE 454 data and ½ plate of 8 kb paired-end GSFLX Titanium data using a Genome Sequencer instrument from 454 Life Sciences (Branford, Conn.). The partial genome sequence was uploaded onto the Rapid Annotation using Subsystem Technology (RAST) server (Aziz et al., BMC Genomics, 9:75, 2008). Auto-annotation of the C. polysaccharolyticus partial genome sequence identified ORF0760 as a gene predicted to encode a bifunctional β-D-mannanase/endoglucanase (Man5B). Man5A was previously identified in a recombinant phage library of C. polysaccharolyticus genomic DNA, which was screened for endoglucanase activity (Cann et al., J Bacteriol, 181:1643, 1999) and the full sequence of this gene was also identified in the partial genome sequence for C. polysaccharolyticus.
(§2) The DNA sequence corresponding to man5B was amplified by the PicoMaxx high fidelity PCR kit using genomic DNA as the template with the primer set Man5B-Forward and Man5B-Reverse (Table 1-1). The primers were engineered to incorporate a 5′-[…] (SEQ ID NO: 54) extension in Man5B-F and a 5′-[…] (SEQ ID NO: 55) extension in Man5B-R, which facilitated subsequent directional cloning. The resultant man5B amplicon was then digested with T4 DNA polymerase exonuclease activity, annealed with a similarly digested pET-46b vector and introduced into E. coli JM109 by electroporation. Man5A-TM1 was amplified using genomic DNA as template with primers Man5A-TM1-F and Man5A-TM1-R (Table 1-1). The primer sets for Man5A-TM1 and Man5A-TM2 were designed to include 5′-NdeI and 3′-XhoI restriction sites for subsequent directional cloning. The resulting amplicons were then cloned into the pGEM-T vector via TA-cloning and subcloned in-frame with the hexahistidine (His6) encoding sequence of a modified pET-28a expression vector via its NdeI-XhoI polylinker site. The truncated protein Man5A-TM2 originally named ManA-SLH-CBD was cloned as described in a previous study (Cann et al., J Bacteriol, 181:1643, 1999). Expression of each of the resulting gene constructs yielded fusion proteins containing an N-terminal polyhistidine tag sequence to facilitate affinity purification via metal chelate chromatography. The resulting plasmid constructs pET46-Man5B, pET28a-Man5A-TM1, and pET-28a-Man5A-TM2 were sequenced to confirm the integrity of the cloned genes (W. M. Keck Center for Comparative and Functional Genomics at the University of Illinois at Urbana-Champaign).
(§3) The plasmid constructs were then introduced into E. coli BL-21 CodonPlus (DE3) RIL competent cells by heat shock, and grown overnight in lysogeny broth (LB) agar medium supplemented with ampicillin (100 μg/mL) and chloramphenicol (50 μg/mL) at 37° C. After 12 h, single colonies were selected and used to inoculate fresh LB (10 mL) supplemented with the antibiotics above at the same concentrations, followed by culturing with aeration for 8 h at 37° C. The pre-cultures were then inoculated into fresh LB (1 L) supplemented with ampicillin and chloramphenicol and the cultures were incubated at 37° C. with vigorous aeration (225 rpm/min). The cultures were grown to an optical density of 0.3 at 600 nm, and the temperature was shifted to 16° C. and gene expression was induced by the addition of 0.1 mM isopropyl β-D-thiogalactopyranoside (IPTG). […]

Substrate in data set [2]: OC[C@H]1O[C@@H](O[C@H]2[C@H](O)[C@H](O)[C@H](O[C@H]3[C@H](O)[C@H](O)[C@H](O[C@H]4[C@H](O)[C@H](O)[C@H](O[C@H]5[C@H](O)[C@H](O)C(O)O[C@@H]5CO)O[C@@H]4CO)O[C@@H]3CO)O[C@@H]2CO)[C@@H](O)[C@@H](O)[C@@H]1O
As for the experimental part: as §1, §2, §3

Substrate in data set [3]: OC[C@H]1O[C@@H](O[C@H]2[C@H](O)[C@H](O)[C@H](O[C@H]3[C@H](O)[C@H](O)[C@H](O[C@H]4[C@H](O)[C@H](O)[C@H](O[C@H]5[C@H](O)[C@H](O)[C@H](O[C@H]6[C@H](O)[C@H](O)C(O)O[C@@H]6CO)O[C@@H]5CO)O[C@@H]4CO)O[C@@H]3CO)O[C@@H]2CO)[C@@H](O)[C@@H](O)[C@@H]1O
Here is the method: as §1, §2, §3

Substrate in data set [4]: OC[C@H]1O[C@@H](O[C@H]2[C@H](O)[C@@H](O)[C@H](O[C@H]3[C@H](O)[C@@H](O)[C@H](O[C@H]4[C@H](O)[C@@H](O)[C@H](O[C@H]5[C@H](O)[C@@H](O)[C@H](O[C@H]6[C@H](O)[C@@H](O)C(O)O[C@@H]6CO)O[C@@H]5CO)O[C@@H]4CO)O[C@@H]3CO)O[C@@H]2CO)[C@H](O)[C@@H](O)[C@@H]1O
As for the experimental part:
as §1, §2, §3

B1: Caldanaerobius polysaccharolyticus endo-β-mannanase Man5A truncation mutant Man5A-TM1, SEQ ID NO: 28 (Caldanaerobius polysaccharolyticus) (protein)
chain: AGTSGDGRFHVVGNKIVDPDGKDFIIKGVNIQGYRSWEKRSVLQDVHLIADVWKFNTVRLNCFIGQNNWGEGTGANNDIDAIIKAFTAKKVVVEIDLHDTTGYPPLSNPPPAPGQPSLDQAIAWFKELAAKYKDNPYVWFNTMNEPGSSTAPLDPQWKVANEEIIKAIRSTGADNIIVVDGWSYANEGIEQNTPTVDEKRSAVLTYGQDLLNADSAKNTIFAFHNYNEGDIQKKVEDYIDRANAKGLYVFMEEYGKDYSDAAKEGVKSGLQAVMNKGAGRIYWNWDGYDLYDLTSGTGRGSGWEINKTDGSKPTNLSWVGDKIWDDNHGITPTFDDQNPKVDLALERLIANNNGFKAGDKVQFTTFLRNSGDLPIGKDSKVVVKFYVDGVQLGDPVEISGGIAVGQRIPVTSPELTVSKTDFTVKAVIDSSSTYADGAEDAVIENNWIEAAFNSTAPSSGYELVVTGIKITPDTVKEGDYVQAQVTVANQGPEATPVTNIIGWFYVNGYYYTLDDAAKSCAEQDNVTLKPGESITLSTKVKYRAAAPFNFSFVLENLYADDQNQSNNSITVNVPVKMGEGGVNMVSNPGFEDGLDSWQDWQQDMSAVPEAAHNGALGLKIGGGKAAGGGQDIPLKPNTTYILGAWAKFDSKPAGTFDVVVQYHLKDANNTYVQHILNFNETDWTYKQLLFTTPDVFGSTPQLALWKGDTSKANLYVDDVYLVEVSNLIVNGTAENGMDGWPDWGYPVSAVPEAAYGGTKGFKLSGGKQAGMGQKVALKPNTTYILGAWGKFTAKPGTYCDVIVQYHLKDANNTYVQNILRFTETDWTYKQVVFTTPDAFGSDPEFVLWKDDASNADFYADNITLVEV
In the case of B1, the catalytic efficiency (kcat/Km) in data set [1] was 9300 ± 2000 M⁻¹ s⁻¹; in data set [2], 33000 ± 3000 M⁻¹ s⁻¹; in data set [3] it was “(1.2 ± 0.2) × 10^2 mM^−1 s^−1”; in data set [4] it was 20000 ± 2000 M⁻¹ s⁻¹.
